{"source": "patent US20250034594A1", "about": "“RNA-GUIDED GENOME RECOMBINEERING AT KILOBASE SCALE” (THE BOARD OF TRUSTEES OF THE LELAND STANFORD JUNIOR …, priority 2021, published 2025)", "molecules": {"B1": {"name": "Homolog_T3: RecT, Pantoea dispersa; SEQ ID NO: 119 (protein, listed as Pantoea dispersa)", "chain": "MSNQPPLATADLQKTQQSNQVAKTPEQTLVGFMNQPAMKSQLAAALPRHMTADRMIRIVTTEIRKTPALAQCDQSSFIGAVVQCSQLGLEPGSALGHAYLLPFGNGRSKSGQSNVQLIIGYRGMIDLARRSGQIVSLSARVVRADDEFSFEYGLDENLIHRPGDNESAPITHVYAVARLKDGGTQFEVMTAKQVEKVKAQSKASSNGPWVTHWEEMAKKTVIRRLFKYLPVSIEMQKAVVLDEKAESDVDQDNASVLSAEYSVLESGTGE"}, "B2": {"name": "Homolog_T5: RecT, Providencia stuartii; SEQ ID NO: 123 (protein, listed as Providencia stuartii)", "chain": "MSNPPLAQADLQKTQGTEVKEKTKDQMLVELINKPSMKAQLAAALPRHMTPDRMIRIVTTEIRKTPALATCDMQSFVGAVVQCSQLGLEPGNALGHAYLLPFGNGKSKSGQSNVQLIIGYRGMIDLARRSGQIVSISARTVRQGDNFHFEYGLNENLTHVPGENEDSPITHVYAVARLKDGGVQFEVMTYNQIEKVRASSKAGQNGPWVSHWEEMAKKTVIRRLFKYLPVSIEMQKAVILDEKAEANIDQENATIFEGEYEEVGTDGK"}, "B3": {"name": "Homolog_E5: RecE, Providencia stuartii; SEQ ID NO: 124 (protein, listed as Providencia stuartii)", "chain": "EGIYYNISNEDYHNGLGISKSQLDLINEMPAEYIWSKEAPVDEEKIKPLEIGTALHCLLLEPDEYHKRYKIGPDVNRRTNAGKEKEKEFFDMCEKEGITPITHDDNRKLMIMRDSALAHPIAKWCLEADGVSESSIYWTDKETDVLCRCRPDRIITAHNYIVDVKSSGDIEKFDYEYYNYRYHVQDAFYSDGYKEVTGITPTFLFLVVSTKIDCGKYPVRTYVMSEEAKSAGRTAYKHNLLTYAECLKTDEWAGIRTLSLPRWAKELRNE"}, "B4": {"name": "Homolog_T4: RecT, Type-F symbiont of Plautia stali; SEQ ID NO: 121 (protein)", "chain": "MSNQPPIASADLQKTQQSKQVANKTPEQTLVGFMNQPAMKSQLAAALPRHMTADRMIRIVTTEIRKTPALATCDQSSFIGAVVQCSQLGLEPGSALGHAYLLPFGNGRSKSGQSNVQLIIGYRGMIDLARRSGQIVSLSARVVRADDEFSFEYGLDENLIHRPGDNEDAPITHVYAVARLKDGGTQFEVMTAKQVEKVKAQSKASSNGPWVTHWEEMAKKTVIRRLFKYLPVSIEMQKAVVLDEKAESDVDQDNASVLSAEYSVLEGDGGE", "modifications": "Type-F symbiont of Plautia stali"}, "B5": {"name": "Homolog_E3: RecE, Pantoea dispersa; SEQ ID NO: 120 (protein, listed as Pantoea dispersa)", "chain": "MEPGIYYDISNEAYHSGPGISKSQLDDIARSPAIFQWRKDAPVDTEKTKALDLGTDFHCAVLEPERFADMYRVGPEVNRRTTAGKAEEKEFFEKCEKDGAVPITHDDARKVELMRGSVMAHPIAKQMIAAQGHAEASIYWHDESTGNLCRCRPDKFIPDWNWIVDVKTTADMKKFRREFYDLRYHVQDAFYTDGYAAQFGERPTFVFVVTSTTIDCGRYPTEVFFLDEETKAAGRSEYQSNLVTYSECLSRNEWPGIATLSLPHWAKELRNV"}, "B6": {"name": "Homolog_E4: RecE, Type-F symbiont of Plautia stali; SEQ ID NO: 122 (protein)", "chain": "MQPGIYYDISNEDYHGGPGISKSQLDDIAISPAIYQWRKHAPVDEEKTAALDLGTALHCLLLEPDEFSKRFEIGPEVNRRTTAGKEKEKEFMERCEAEGVTPITHDDNRKLRLMRDSAMAHPIARWMLEAQGNAEASIYWNDRDTGVLSRCRPDKIITDFNWCVDVKSTADIIKFQKDFYSYRYHVQDAFYSDGYESHFDETPTFAFLAVSTSIDCGRYPVQVFIMDQQAKDAGRAEYKRNIHTFAECLSRNEWPGIATLSLPYWAKELRNE", "modifications": "Type-F symbiont of Plautia stali"}}}
{"system": "HSP90AA1 locus", "test": "mKate knock-in gene-editing assay, RecE/RecT homologs, HSP90AA1 locus", "assay_type": "cell-based, human", "conditions": "HEK293 cells, MCP fusion, n=3", "procedure": "(§1) Transfection HEK293T cells were seeded into 96-well plates (Corning) 12-24 hours prior to transfection at a density of 30,000 cells/well, and 250 ng of total DNA was transfected per well. HeLa and HepG2 cells were seeded into 48-well plates (Corning) one day prior to transfection at a density of 50,000 and 30,000 cells/well respectively, and 400 ng of total DNA was transfected per well. Transfections were performed with Lipofectamine 3000 (Life Technologies) following the manufacturer's instructions.\n(§2) Fluorescence-activated cell sorting (FACS) mKate knock-in efficiency was analyzed on a CytoFLEX flow cytometer (Beckman Coulter; Stanford Stem Cell FACS Core). 72 hours after transfection, cells were washed once with PBS and dissociated with TrypLE Express Enzyme (Thermo Fisher Scientific). Cell suspension was then transferred to a 96-well U-bottom plate (Thermo Fisher Scientific) and centrifuged at 300×G for 5 minutes. After removing the supernatant, pelleted cells were resuspended with 50 μl 4% FBS in PBS, and cells were sorted within 30 minutes of preparation.\n(§3) 15 different species of microbes having RecE/RecT proteins were selected for a screen of various RecE and RecT proteins across the microbial kingdom (Table 3). Each protein was codon-optimized and synthesized. As previously described for E. coli RecE/RecT based REDIT systems, each protein was fused via E-XTEN linker to the MCP protein with additional nuclear localization signal. mKate knock-in gene-editing assay was used to measure efficiencies at DYNLT1 locus (FIG. 26A, Table 4) and HSP90AA1 locus (FIG. 26B, Table 4).", "units": {"Mean mKate+ (%), HSP90AA1": "%"}}
{"molecule": "B1", "Mean mKate+ (%), HSP90AA1": 7.1200}
{"molecule": "B2", "Mean mKate+ (%), HSP90AA1": 6.4300}
{"molecule": "B3", "Mean mKate+ (%), HSP90AA1": 6.0233}
{"molecule": "B4", "Mean mKate+ (%), HSP90AA1": 5.7567}
{"molecule": "B5", "Mean mKate+ (%), HSP90AA1": 6.7467}
{"molecule": "B6", "Mean mKate+ (%), HSP90AA1": 6.2567}
{"system": "DYNLT1 locus", "test": "mKate knock-in gene-editing assay, RecE/RecT homologs, DYNLT1 locus", "assay_type": "cell-based, human", "conditions": "HEK293 cells, MCP fusion, n=3", "procedure": "as §1, §2, §3", "units": {"Mean mKate+ (%), DYNLT1": "%"}}
{"molecule": "B1", "Mean mKate+ (%), DYNLT1": 11.9000}
{"molecule": "B2", "Mean mKate+ (%), DYNLT1": 10.8267}
{"molecule": "B3", "Mean mKate+ (%), DYNLT1": 4.4667}
{"molecule": "B4", "Mean mKate+ (%), DYNLT1": 10.4433}
{"molecule": "B5", "Mean mKate+ (%), DYNLT1": 2.0533}
{"molecule": "B6", "Mean mKate+ (%), DYNLT1": 5.7200}
